What was measured:
Test in all cases: fluorescence anisotropy
[1] = target: NusB D118N (NusB101) (Escherichia coli, UniProt P0A780 1-139, D118N)
[2] = target: NusB (Escherichia coli, UniProt P0A780 1-139)
[3] = target: NusB K2E (Escherichia coli, UniProt P0A780 1-139, K2E)
[4] = target: NusB D118A (Escherichia coli, UniProt P0A780 1-139, D118A)
[5] = target: NusB D118K (Escherichia coli, UniProt P0A780 1-139, D118K)
[6] = target: NusB D118R (Escherichia coli, UniProt P0A780 1-139, D118R)

| Binder | binding result [1] | binding result [2] | Kd [1] | Kd [2] | also measured |
| --- | --- | --- | --- | --- | --- |
| AUAGCGGCCACAUUCCA (ssRNA) [nutR BoxA69-spacer (boxA transversion)] | no binding | no binding |  |  |  |
| CACUGCUCUUUAACAAUUA (ssRNA) [rrnG BoxA-spacer] |  |  | 24 ± 4 nM | 130 ± 20 nM | Kd [3]: 3600 nM |
| CGCUCGUACACAUUCCA (ssRNA) [nutR BoxA(U39G)-spacer] |  |  |  | 1600 ± 800 nM |  |
| CGCUCUUAAAAAUUAA (ssRNA) [nutL BoxA-spacer] |  |  |  | 2200 ± 800 nM | Kd [3]: 5100 nM |
| AAAAUUAA (ssRNA) [nutL spacer] | no binding | no binding |  |  |  |
| UGCUCUUUA (ssRNA) [rrnG BoxA] |  |  | 50 ± 15 nM | 200 ± 10 nM |  |
| CACAUUCCA (ssRNA) [nutR spacer] | no binding | no binding |  |  |  |
| CGCUAUUACACAUUCCA (ssRNA) [nutR BoxA16-spacer (C38A)] |  |  |  | 5100 ± 1400 nM |  |
| CGCUCUUACACAUUCCA (ssRNA) [nutR BoxA-spacer] |  |  |  |  | binding result [4]: no binding; binding result [5]: no binding; binding result [6]: no binding |
| CGCUCUUA (ssRNA) [nutR BoxA] |  |  | 290 ± 15 nM | 1600 ± 100 nM |  |
